Reference: the supplement of paper PMC10065799, “High-throughput profiling of sequence recognition by tyrosine kinases and SH2 domains using bacterial peptide display” (eLife, 2023)

Key:
AncSZ = assay: phosphorylation enrichment, bacterial display (enrichment ratio); higher = better substrate or ligand; peptides without Tyr show the background
EPHB1 = EPHB1 (UniProt P54762); assay: as above
EPHB2 = EPHB2 (UniProt P29323); assay: as above
FGFR1 = FGFR1 (UniProt P11362); assay: as above
FGFR3 = FGFR3 (UniProt P22607); assay: as above
Fer (mouse) = assay: as above
Fes = Fes (UniProt P07332); assay: as above
Fyn = Fyn (UniProt P06241); assay: as above
Hck = Hck (UniProt P08631); assay: as above
Jak2 = Jak2 (UniProt O60674); assay: as above
MERTK = MERTK (UniProt Q12866); assay: as above
c-Abl (mouse) = assay: as above
c-Src = assay: as above
Grb2 SH2 = Grb2 SH2 (UniProt P62993); assay: SH2 binding enrichment of the phosphorylated peptide, bacterial display (enrichment ratio); higher = better substrate or ligand; peptides without Tyr show the background
SHP2-C SH2 = assay: as above
c-Src SH2 = assay: as above
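Throughout, for SH2 binding enrichment of the phosphorylated peptide, bacterial display: peptide library displayed on the E. coli surface as eCPX fusions, selected cells deep-sequenced, score is each peptide's frequency after selection divided by its frequency in the input.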
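Throughout, for phosphorylation enrichment, bacterial display: 11-residue human phosphosite peptides and single-mutation variants displayed on the E. coli surface, counted by deep sequencing, each peptide's frequency after selection divided by its frequency in the unselected input library; frequency after pTyr selection over input frequency; kinase dosed for 20-30% of maximal phosphorylation in three min.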

Sequence of Fes (P07332 whole entry, looked up): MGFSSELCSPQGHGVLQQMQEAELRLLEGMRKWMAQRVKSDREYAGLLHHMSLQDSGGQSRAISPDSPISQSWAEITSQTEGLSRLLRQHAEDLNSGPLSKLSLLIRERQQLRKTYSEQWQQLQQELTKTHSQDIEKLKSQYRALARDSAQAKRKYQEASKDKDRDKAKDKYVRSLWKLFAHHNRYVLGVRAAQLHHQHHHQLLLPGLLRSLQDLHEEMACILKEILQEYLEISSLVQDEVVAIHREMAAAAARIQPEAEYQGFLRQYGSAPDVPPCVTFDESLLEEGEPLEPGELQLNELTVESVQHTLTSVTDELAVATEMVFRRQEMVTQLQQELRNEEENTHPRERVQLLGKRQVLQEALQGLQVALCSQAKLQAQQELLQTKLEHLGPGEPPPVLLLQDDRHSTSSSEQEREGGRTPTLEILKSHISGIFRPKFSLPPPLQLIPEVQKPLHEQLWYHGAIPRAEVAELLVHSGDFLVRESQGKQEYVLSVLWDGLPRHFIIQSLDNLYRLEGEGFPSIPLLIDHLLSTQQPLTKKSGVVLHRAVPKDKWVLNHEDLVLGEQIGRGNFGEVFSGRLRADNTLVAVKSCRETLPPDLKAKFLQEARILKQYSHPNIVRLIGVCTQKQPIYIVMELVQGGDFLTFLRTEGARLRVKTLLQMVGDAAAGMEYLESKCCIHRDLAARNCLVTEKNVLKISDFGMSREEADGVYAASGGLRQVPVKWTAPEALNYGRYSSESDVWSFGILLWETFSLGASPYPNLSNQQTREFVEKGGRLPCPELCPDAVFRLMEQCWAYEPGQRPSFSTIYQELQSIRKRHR
Sequence of MERTK (Q12866 whole entry, looked up): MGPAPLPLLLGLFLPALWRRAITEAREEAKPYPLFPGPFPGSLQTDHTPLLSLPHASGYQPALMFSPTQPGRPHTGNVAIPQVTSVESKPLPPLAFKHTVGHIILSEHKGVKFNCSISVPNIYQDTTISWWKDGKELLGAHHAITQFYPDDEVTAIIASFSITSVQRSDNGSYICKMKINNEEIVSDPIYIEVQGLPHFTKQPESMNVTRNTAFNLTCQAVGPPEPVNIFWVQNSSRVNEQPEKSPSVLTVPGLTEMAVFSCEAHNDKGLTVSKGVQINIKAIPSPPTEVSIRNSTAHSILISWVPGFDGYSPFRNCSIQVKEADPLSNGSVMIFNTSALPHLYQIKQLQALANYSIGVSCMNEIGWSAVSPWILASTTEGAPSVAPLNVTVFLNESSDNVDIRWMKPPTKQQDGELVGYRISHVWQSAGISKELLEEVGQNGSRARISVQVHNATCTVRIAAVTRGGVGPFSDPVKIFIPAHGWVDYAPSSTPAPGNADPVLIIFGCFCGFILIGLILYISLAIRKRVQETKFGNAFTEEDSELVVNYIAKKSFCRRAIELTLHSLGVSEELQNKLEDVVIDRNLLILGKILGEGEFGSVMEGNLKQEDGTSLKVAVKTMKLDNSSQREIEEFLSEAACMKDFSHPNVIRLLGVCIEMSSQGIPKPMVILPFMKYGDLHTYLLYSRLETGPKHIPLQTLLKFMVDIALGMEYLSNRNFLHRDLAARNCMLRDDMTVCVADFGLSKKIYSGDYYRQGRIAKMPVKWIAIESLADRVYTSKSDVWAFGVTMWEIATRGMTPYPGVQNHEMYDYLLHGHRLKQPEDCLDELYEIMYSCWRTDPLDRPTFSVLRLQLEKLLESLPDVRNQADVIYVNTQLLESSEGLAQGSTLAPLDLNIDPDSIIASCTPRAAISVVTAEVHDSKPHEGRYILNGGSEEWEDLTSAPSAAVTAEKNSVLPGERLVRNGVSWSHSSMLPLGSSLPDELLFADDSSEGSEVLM
Sequence of Hck (P08631 whole entry, looked up): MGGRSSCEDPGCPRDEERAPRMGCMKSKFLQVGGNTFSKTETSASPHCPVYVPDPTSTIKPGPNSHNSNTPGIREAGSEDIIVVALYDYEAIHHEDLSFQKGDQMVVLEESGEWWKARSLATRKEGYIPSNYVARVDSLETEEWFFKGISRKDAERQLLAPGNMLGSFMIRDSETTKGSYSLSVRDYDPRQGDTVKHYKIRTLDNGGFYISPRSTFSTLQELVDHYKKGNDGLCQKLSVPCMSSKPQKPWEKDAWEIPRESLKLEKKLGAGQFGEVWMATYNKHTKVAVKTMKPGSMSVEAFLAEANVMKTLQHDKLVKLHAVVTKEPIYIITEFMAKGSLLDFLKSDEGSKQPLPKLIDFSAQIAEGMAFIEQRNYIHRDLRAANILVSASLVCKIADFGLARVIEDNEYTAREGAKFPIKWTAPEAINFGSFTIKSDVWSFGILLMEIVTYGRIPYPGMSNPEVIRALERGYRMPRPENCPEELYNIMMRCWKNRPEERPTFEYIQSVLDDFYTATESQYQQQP
Sequence of EPHB2 (P29323 whole entry, looked up): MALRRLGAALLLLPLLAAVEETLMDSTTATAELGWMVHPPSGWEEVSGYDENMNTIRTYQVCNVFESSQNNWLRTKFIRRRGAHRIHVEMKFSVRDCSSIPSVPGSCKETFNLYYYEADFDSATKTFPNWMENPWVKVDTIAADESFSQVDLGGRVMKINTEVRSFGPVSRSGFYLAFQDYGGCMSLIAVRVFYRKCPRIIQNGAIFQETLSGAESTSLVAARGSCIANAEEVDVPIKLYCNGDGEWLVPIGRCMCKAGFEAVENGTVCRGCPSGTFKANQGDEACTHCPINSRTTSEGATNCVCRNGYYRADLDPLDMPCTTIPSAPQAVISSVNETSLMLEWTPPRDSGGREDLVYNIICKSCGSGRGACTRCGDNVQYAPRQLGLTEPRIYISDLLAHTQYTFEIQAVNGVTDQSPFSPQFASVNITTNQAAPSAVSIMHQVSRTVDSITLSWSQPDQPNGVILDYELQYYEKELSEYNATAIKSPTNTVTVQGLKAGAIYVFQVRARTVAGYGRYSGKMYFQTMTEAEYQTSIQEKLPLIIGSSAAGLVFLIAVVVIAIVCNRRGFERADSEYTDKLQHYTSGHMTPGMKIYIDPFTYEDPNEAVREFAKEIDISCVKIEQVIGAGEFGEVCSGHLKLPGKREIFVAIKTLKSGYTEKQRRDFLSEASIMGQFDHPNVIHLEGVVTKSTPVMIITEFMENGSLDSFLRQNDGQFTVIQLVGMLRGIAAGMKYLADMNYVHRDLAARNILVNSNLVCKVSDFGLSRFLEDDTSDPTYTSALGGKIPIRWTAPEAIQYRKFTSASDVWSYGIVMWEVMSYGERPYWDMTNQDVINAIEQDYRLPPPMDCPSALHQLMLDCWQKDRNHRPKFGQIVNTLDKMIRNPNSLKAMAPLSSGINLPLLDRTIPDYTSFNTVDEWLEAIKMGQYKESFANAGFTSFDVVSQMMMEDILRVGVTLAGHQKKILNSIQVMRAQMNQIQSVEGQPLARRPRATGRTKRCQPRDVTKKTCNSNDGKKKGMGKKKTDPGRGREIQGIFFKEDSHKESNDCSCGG
Sequence of FGFR3 (P22607 whole entry, looked up): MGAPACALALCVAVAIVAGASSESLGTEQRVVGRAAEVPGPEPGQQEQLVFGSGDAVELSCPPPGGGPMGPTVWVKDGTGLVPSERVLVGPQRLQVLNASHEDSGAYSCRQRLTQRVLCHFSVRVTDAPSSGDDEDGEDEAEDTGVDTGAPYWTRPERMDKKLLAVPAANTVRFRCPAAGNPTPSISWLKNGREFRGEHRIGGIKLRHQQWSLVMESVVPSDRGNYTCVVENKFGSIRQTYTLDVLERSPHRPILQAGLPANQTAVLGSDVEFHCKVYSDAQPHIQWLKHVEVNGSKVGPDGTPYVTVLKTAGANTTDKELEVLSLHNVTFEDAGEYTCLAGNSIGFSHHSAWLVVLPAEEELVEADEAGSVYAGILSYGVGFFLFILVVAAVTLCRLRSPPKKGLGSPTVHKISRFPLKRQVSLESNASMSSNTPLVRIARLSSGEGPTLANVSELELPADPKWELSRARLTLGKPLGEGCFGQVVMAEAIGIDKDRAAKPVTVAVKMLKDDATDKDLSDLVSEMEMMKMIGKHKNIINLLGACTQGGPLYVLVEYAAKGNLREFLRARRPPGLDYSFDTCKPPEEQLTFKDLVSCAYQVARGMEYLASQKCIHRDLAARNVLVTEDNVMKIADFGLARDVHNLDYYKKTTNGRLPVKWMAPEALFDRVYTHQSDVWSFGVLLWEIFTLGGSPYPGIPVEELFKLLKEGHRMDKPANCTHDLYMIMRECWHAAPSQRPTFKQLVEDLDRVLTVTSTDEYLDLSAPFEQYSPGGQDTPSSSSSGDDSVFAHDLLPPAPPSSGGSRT
Sequence of Fyn (P06241 whole entry, looked up): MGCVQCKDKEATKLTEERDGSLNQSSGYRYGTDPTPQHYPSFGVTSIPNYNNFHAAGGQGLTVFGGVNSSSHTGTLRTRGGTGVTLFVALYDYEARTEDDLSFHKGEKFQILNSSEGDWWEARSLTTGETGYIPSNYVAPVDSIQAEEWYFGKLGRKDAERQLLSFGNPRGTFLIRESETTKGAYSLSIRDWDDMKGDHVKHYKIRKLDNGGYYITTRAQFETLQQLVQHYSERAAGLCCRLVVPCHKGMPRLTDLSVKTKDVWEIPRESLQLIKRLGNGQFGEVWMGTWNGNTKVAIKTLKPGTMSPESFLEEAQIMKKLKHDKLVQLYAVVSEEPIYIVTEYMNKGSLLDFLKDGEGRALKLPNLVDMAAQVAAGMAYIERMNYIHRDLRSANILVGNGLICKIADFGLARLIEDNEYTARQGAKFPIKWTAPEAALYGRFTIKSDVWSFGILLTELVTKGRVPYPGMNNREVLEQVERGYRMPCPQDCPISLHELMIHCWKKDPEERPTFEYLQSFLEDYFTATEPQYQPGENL
Sequence of Grb2 SH2 (P62993 whole entry, looked up): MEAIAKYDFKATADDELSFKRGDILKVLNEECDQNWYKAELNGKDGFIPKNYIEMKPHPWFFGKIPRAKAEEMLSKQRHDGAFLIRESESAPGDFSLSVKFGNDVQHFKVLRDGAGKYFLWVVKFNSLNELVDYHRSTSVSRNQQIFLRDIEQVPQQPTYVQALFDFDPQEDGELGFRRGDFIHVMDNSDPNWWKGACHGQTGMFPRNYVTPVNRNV

Sequence | phosphorylation enrichment (AncSZ) | phosphorylation enrichment (EPHB1) | phosphorylation enrichment (EPHB2) | phosphorylation enrichment (FGFR1) | phosphorylation enrichment (FGFR3) | phosphorylation enrichment (Fer (mouse)) | phosphorylation enrichment (Fes) | phosphorylation enrichment (Fyn) | phosphorylation enrichment (Hck) | phosphorylation enrichment (Jak2) | phosphorylation enrichment (MERTK) | phosphorylation enrichment (c-Abl (mouse)) | phosphorylation enrichment (c-Src) | SH2 binding enrichment (Grb2 SH2) | SH2 binding enrichment (SHP2-C SH2) | SH2 binding enrichment (c-Src SH2)
AASHRYDLGGL [QPRT_Y162] | 0.491 | 0.356 | 0.375 | 0.416 | 0.4 | 0.336 | 0.56 | 0.352 | 0.35 | 0.521 | 0.327 | 0.432 | 0.391 | 0.828 | 0.607 | 0.521
AAVDEYLEFRR [FAM221A_Y17_YF] | 1.14 | 0.395 | 0.517 | 0.601 | 0.531 | 0.421 | 0.963 | 0.949 | 1.47 | 0.756 | 0.409 | 0.722 | 1.28 | 0.926 | 0.496 | 0.559
AAVDTVCRHNY [HLA-DRB1_Y107_Y107V] | 0.645 | 0.463 | 0.429 | 0.612 | 0.673 | 0.417 | 0.842 | 0.494 | 0.64 | 0.739 | 0.511 | 0.795 | 0.473 | 0.788 | 0.636 | 0.534
ACCLLYCGDVV [TUBA4A_Y319_R320C] | 1.54 | 9.94 | 7.84 | 1.13 | 1.23 | 3.7 | 1.3 | 1.1 | 1.71 | 1.09 | 4.54 | 1.29 | 4.33 | 0.898 | 0.675 | 0.562
ACEVLYNIVFM [NCF2_Y125_A128V] | 2.4 | 1.17 | 1.16 | 1.8 | 2.03 | 8.66 | 1.93 | 1.55 | 2.95 | 1.59 | 3.19 | 1.84 | 2.18 | 0.798 | 0.733 | 0.403
ADKSVYLMGLN [MYH7_Y386_A385V] | 0.666 | 0.407 | 0.409 | 0.444 | 0.523 | 0.413 | 0.769 | 0.583 | 0.481 | 0.51 | 0.379 | 0.338 | 0.678 | 0.92 | 1.54 | 0.528
AEVDTYCRHNF [HLA-DRB1_Y107_A103E_YF] | 0.988 | 0.594 | 0.556 | 0.532 | 0.61 | 0.813 | 0.935 | 0.567 | 0.6 | 0.719 | 0.473 | 0.618 | 0.509 | 0.826 | 0.696 | 0.454
AFPVSYSSSSA [RET_Y687_G691S] | 0.598 | 0.511 | 0.425 | 0.38 | 0.685 | 0.425 | 0.663 | 0.461 | 0.463 | 0.527 | 0.536 | 0.455 | 0.415 | 0.8 | 0.586 | 0.524
AGIKAYQSCLQ [ADGRA2_Y377_T375K] | 0.786 | 0.583 | 0.55 | 0.453 | 0.572 | 0.424 | 0.983 | 0.383 | 0.537 | 0.841 | 0.558 | 0.85 | 0.55 | 0.767 | 0.64 | 0.57
AGQEDYDRLRP [CDC42_Y64] | 1.13 | 0.598 | 0.654 | 0.576 | 0.69 | 0.508 | 1.07 | 0.546 | 0.785 | 0.839 | 0.471 | 0.689 | 0.452 | 0.825 | 0.698 | 0.609
AHADEYGAEAL [HBA1_Y25_G23D] | 0.97 | 0.538 | 0.403 | 0.398 | 0.564 | 0.412 | 1.1 | 0.458 | 0.511 | 0.96 | 0.536 | 0.791 | 0.46 | 0.781 | 0.66 | 0.393
AIDDKYSRREE [SART1_Y685] | 0.806 | 0.431 | 0.511 | 0.488 | 0.578 | 0.434 | 0.939 | 0.51 | 0.465 | 0.794 | 0.439 | 0.471 | 0.426 | 0.937 | 0.968 | 0.44
AIIGIYNLRDD [CDH23_Y2949_I2950N] | 0.821 | 0.481 | 0.437 | 0.478 | 0.599 | 0.45 | 1 | 6.82 | 5.28 | 0.795 | 0.573 | 0.691 | 5.84 | 1.14 | 0.951 | 0.805
AKAEIYEMRPL [COX10_Y97] | 1.08 | 11 | 6.54 | 0.552 | 0.672 | 6.76 | 0.912 | 11.4 | 12.1 | 0.77 | 8.29 | 0.801 | 9.82 | 0.895 | 0.623 | 0.573
ALTDNYMYVVI [HAGH_Y61_L64V] | 1.92 | 12.9 | 13.1 | 11.1 | 9.14 | 7.79 | 1.42 | 1.04 | 1.52 | 2.65 | 4.21 | 0.952 | 1.12 | 0.783 | 0.767 | 0.607
ALTRSYIREKV [CYP2C8_Y243] | 0.524 | 0.388 | 0.316 | 0.423 | 0.367 | 0.43 | 0.596 | 0.422 | 0.4 | 0.445 | 0.369 | 0.417 | 0.419 | 0.655 | 0.576 | 0.433
AMCVRYDGVEV [ADAMTSL2_Y594] | 1.19 | 0.764 | 0.735 | 0.7 | 0.781 | 0.791 | 1.26 | 0.583 | 0.644 | 1 | 0.49 | 0.817 | 0.542 | 0.805 | 0.682 | 0.859

Sequence | phosphorylation enrichment (AncSZ) | phosphorylation enrichment (EPHB1) | phosphorylation enrichment (EPHB2) | phosphorylation enrichment (FGFR1) | phosphorylation enrichment (FGFR3) | phosphorylation enrichment (Fer (mouse)) | phosphorylation enrichment (Fes) | phosphorylation enrichment (Fyn) | phosphorylation enrichment (Hck) | phosphorylation enrichment (Jak2) | phosphorylation enrichment (MERTK) | phosphorylation enrichment (c-Abl (mouse)) | phosphorylation enrichment (c-Src) | SH2 binding enrichment (Grb2 SH2) | SH2 binding enrichment (SHP2-C SH2) | SH2 binding enrichment (c-Src SH2)
ANAFIYVVQLP [L1CAM_Y420_YF] | 1.19 | 0.701 | 0.743 | 0.538 | 0.855 | 0.559 | 1.32 | 0.631 | 0.693 | 1.02 | 0.909 | 0.724 | 0.678 | 0.85 | 0.668 | 0.478
ANSSFHSTRSA [NUMA1_Y1836_Y1836H] | 0.597 | 0.436 | 0.51 | 0.551 | 0.599 | 0.425 | 1.04 | 0.555 | 0.551 | 0.552 | 0.496 | 0.616 | 0.602 | 0.749 | 0.514 | 0.528
APAHKYHGGGG [HBD_Y146_L142P] | 0.778 | 0.288 | 0.419 | 0.37 | 0.423 | 0.329 | 0.502 | 0.328 | 0.294 | 0.35 | 0.549 | 0.616 | 0.537 | 0.709 | 0.66 | 0.538
AQAGEYGAEAL [HBA1_Y25_H21Q] | 0.965 | 0.609 | 0.545 | 0.557 | 0.629 | 0.465 | 0.96 | 0.507 | 0.514 | 0.767 | 0.327 | 0.491 | 0.33 | 0.931 | 0.842 | 0.608
ARGTRYRYVSQ [UCN3_Y95] | 0.534 | 0.39 | 0.461 | 0.42 | 0.483 | 0.493 | 0.637 | 0.492 | 0.469 | 0.437 | 0.529 | 0.608 | 0.572 | 0.789 | 0.602 | 0.479
ARLEFYENEKK [IRS1_Y47_YF] | 1.1 | 0.623 | 0.597 | 0.58 | 0.604 | 0.406 | 0.995 | 0.439 | 0.451 | 0.887 | 0.462 | 0.492 | 0.411 | 1.18 | 1.19 | 2.68
ARLEYCENEKK [IRS1_Y47_Y47C] | 0.795 | 0.552 | 0.475 | 0.786 | 0.702 | 0.464 | 0.815 | 0.567 | 0.421 | 0.687 | 0.449 | 0.486 | 0.486 | 0.594 | 0.766 | 0.49
ARSHIYTFSSC [MEFV_Y741_A744S] | 0.867 | 0.519 | 0.665 | 0.547 | 0.681 | 0.497 | 0.917 | 1.3 | 0.61 | 0.714 | 0.62 | 0.578 | 1.15 | 0.893 | 1.46 | 0.751
ARTNEYKIIRT [INA_Y87] | 0.525 | 0.468 | 0.425 | 0.455 | 0.452 | 0.512 | 0.469 | 0.504 | 0.502 | 0.571 | 0.436 | 0.843 | 0.569 | 0.877 | 1.11 | 0.494
ASGKYYAMKIL [AKT3_Y174] | 0.664 | 0.313 | 0.407 | 0.74 | 0.623 | 0.434 | 0.657 | 0.446 | 0.434 | 0.662 | 0.591 | 0.582 | 0.396 | 0.957 | 0.941 | 1.43
ASNNPYFRDQA [RPGRIP1_Y846] | 0.605 | 0.396 | 0.357 | 0.443 | 0.656 | 0.434 | 0.694 | 0.5 | 0.449 | 0.547 | 0.416 | 0.537 | 0.512 | 0.89 | 0.689 | 0.51
ATARPYSPYII [LRP5_Y1528_R1529S] | 0.646 | 0.473 | 0.192 | 0.351 | 0.727 | 6.92 | 0.731 | 0.934 | 0.456 | 0.668 | 0.375 | 0.544 | 1.02 | 0.838 | 0.764 | 0.619
ATATDYHTTSH [SLC4A1_Y46] | 0.473 | 0.31 | 0.348 | 0.408 | 0.434 | 0.328 | 0.482 | 0.294 | 0.397 | 0.387 | 0.438 | 0.416 | 0.334 | 0.872 | 0.661 | 0.642
AVAFVYFKSIG [ADGRL4_Y301_YF] | 1.38 | 0.911 | 0.797 | 0.798 | 1.01 | 0.728 | 1.6 | 0.643 | 0.626 | 1.15 | 0.471 | 0.938 | 0.426 | 0.928 | 0.686 | 0.628
AVIADYMFWLG [SPATA16_Y290_M286V] | 2.25 | 6.08 | 12.4 | 13.1 | 10.7 | 2 | 1.3 | 0.852 | 1.34 | 3.42 | 2.51 | 1.17 | 1.17 | 1.42 | 1.4 | 1
TDECEYDELIV [TGM1_Y136_Y134C] | 1.41 | 1.09 | 0.842 | 0.57 | 0.865 | 1.61 | 1.13 | 2.06 | 1.8 | 0.788 | 0.604 | 0.742 | 0.529 |  | 0.29 | 0.139
